From US20210139581A1 (Alector, published 2021) come the findings set out here.

Positions count from the first letter of the chain named.

Experiment [1] deals with T1, human CD33 (human, UniProt P20138 18-259, limits assumed).
T1 construct: Human CD33 immobilized on the BLI sensor tip or the BIAcore C1 chip; also called Siglec-3
Nature of the experiment: BLI (ForteBio), Fab 100 nM on immobilized CD33.

Experiment [2] concerns the target human CD33 on primary human monocyte-derived dendritic cells (human, UniProt P20138 18-364). Nature of the experiment: cell-based or functional assay.
Experiment [3] deals with T1, human CD33. Nature of the experiment: BLI (ForteBio), Fab 100 nM on immobilized CD33; kon/koff columns printed 3 rows too low, assigned by koff/kon = printed KD of AB-63.10. The method, then:
(§1) The affinities (KD) of the humanized antibodies for human CD33 were measured for each antibody by BioLayer Interferometry in a ForteBio assay according to standard techniques (Estep et al. (2013) MAbs 5(2): 270-8). […] The assay was carried out at room temperature.
(§2) The affinities of AB-H14 and its affinity-matured variants (Table 15) and AB-H63 and its affinity-matured variants (Table 16), for human CD33 were measured by Fortebio assay according to the method described in Example 1 above.

The target in experiment [4] is T1, human CD33. Nature of the experiment: BLI (ForteBio), Fab 100 nM on immobilized CD33; kon/koff columns printed 3 rows too low, assigned by koff/kon = printed KD of AB-63.15. How it is done: as §1, §2
The target of experiment [5] is T1, human CD33. The experiment is described as follows: BLI (ForteBio), Fab 100 nM on immobilized CD33; kon/koff columns printed 3 rows too low, assigned by koff/kon = printed KD of AB-63.11. How it is done:
as §1, §2

The target in experiment [6] is T1, human CD33. Nature of the experiment: BLI (ForteBio), Fab 100 nM on immobilized CD33; kon/koff columns printed 3 rows too low, assigned by koff/kon = printed KD of AB-63.12. The method, then:
as §1, §2

In experiment [7] the target is T1, human CD33. The experiment is described as follows: BLI (ForteBio), Fab 100 nM on immobilized CD33; kon/koff columns printed 3 rows too low, assigned by koff/kon = printed KD of AB-63.13. The method, then:
as §1, §2

Experiment [8] addresses T1, human CD33. The experiment is described as follows: BLI (ForteBio), Fab 100 nM on immobilized CD33; kon/koff columns printed 3 rows too low, assigned by koff/kon = printed KD of AB-63.14. The method, then: as §1, §2

Sequence of human CD33 on primary human monocyte-derived dendritic cells (P20138 18-364): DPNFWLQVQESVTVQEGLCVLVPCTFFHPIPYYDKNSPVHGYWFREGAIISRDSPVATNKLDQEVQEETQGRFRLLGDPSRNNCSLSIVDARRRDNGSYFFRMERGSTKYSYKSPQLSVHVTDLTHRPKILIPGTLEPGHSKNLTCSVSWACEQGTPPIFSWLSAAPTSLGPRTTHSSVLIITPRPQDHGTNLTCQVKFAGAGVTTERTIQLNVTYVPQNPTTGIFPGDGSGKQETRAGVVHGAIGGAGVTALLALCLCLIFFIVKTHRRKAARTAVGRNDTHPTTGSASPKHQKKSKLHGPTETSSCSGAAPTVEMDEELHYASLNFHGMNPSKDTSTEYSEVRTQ
T1 sequence (P20138 18-259 limits assumed): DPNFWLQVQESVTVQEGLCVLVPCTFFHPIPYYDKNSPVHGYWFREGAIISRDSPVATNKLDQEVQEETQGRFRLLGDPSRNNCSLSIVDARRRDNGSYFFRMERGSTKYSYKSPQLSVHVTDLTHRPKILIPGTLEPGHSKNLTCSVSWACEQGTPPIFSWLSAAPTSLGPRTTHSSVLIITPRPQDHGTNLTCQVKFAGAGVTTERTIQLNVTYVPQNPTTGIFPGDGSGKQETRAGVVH

B1: AB-63.10 (antibody, V domains shown)
VH: QVQLVQSGAEVKKPGASVKVSCKASGYTETDYNLHWVRQAPGQGLEWIGFIYPSNGITGYAQKFQGRVTMTVDTSTSTVYMELSSLRSEDTAVYYCARSDVDYFDYWGQGTLVTVSS
VL: DIVLTQSPDSLAVSLGERATINCRASQDVSTSTYSYMHWYQQKPGQPPKLLIKYASNLESGVPDRFSGSGSGTDFTLTISSLQAEDVAVYYCQHSWELPLTFGQGTKLEIK
For B1, in the experiment with human CD33 [1], the “Fold affinity improvement over parental Ab (AB-H63)” value (“Fold affinity improvement” below) amounted to 5.84 fold and binding was characterised by a dissociation constant (Kd) of 0.466 nM. For the same molecule, in experiment [2], the “Maximal Downregulation (% CD33 remaining)” value came to 21.2% and the “Receptor downregulation (EC50)” value was 0.0418 nM. Further, in the experiment with human CD33 [3], the koff came out at 0.000336 s⁻¹ and the kon worked out at 721000 M⁻¹ s⁻¹.

B2: AB-63.15 (antibody, V domains shown)
VH: B1 VH with E29F, L34Y, Y106L
VL: B1 VL with L58V, L98I, K111E
Consider B2, for which, in the experiment with human CD33 [1], the “Fold affinity improvement” value is 12.1 fold and binding was characterised by a dissociation constant (Kd) of 0.225 nM. Moreover, in experiment [2], the “Maximal Downregulation (% CD33 remaining)” value came out at 27.5% and the “Receptor downregulation (EC50)” value was determined as 0.0476 nM. In the experiment with human CD33 [4], the koff was determined as 0.000204 s⁻¹ and the kon is 903000 M⁻¹ s⁻¹.

B3: AB-63.11 (antibody, V domains shown)
VH: B1 VH with E29F, L34F, S54A, F64D
VL: B1 VL with L98I
With B3, in the experiment with human CD33 [1], the “Fold affinity improvement” value came out at 7.09 fold and the affinity, expressed as Kd, was 0.384 nM. Also, in experiment [2], the “Maximal Downregulation (% CD33 remaining)” value is 23% and the “Receptor downregulation (EC50)” value turned out to be 0.044 nM. In addition, in the experiment with human CD33 [5], the koff came to 0.000322 s⁻¹ and the kon was 839000 M⁻¹ s⁻¹.

B4: AB-63.12 (antibody, V domains shown)
VH: B1 VH with E29F, L34F, Q65T, D100T, Y106D
VL: B1 VL with L58V, E97A, L98I
With B4, in the experiment with human CD33 [1], the “Fold affinity improvement” value turned out to be 9.84 fold and the Kd amounted to 0.277 nM. Also, in the experiment with human CD33 [6], the koff worked out at 0.0002 s⁻¹ and the kon turned out to be 723000 M⁻¹ s⁻¹. For the same molecule, in experiment [2], the “Maximal Downregulation (% CD33 remaining)” value came to 27.5% and the “Receptor downregulation (EC50)” value amounted to 0.035 nM.

B5: AB-63.13 (antibody, V domains shown)
VH: B1 VH with E29F, T58R
VL: B1 VL with D28S, W96E, L98I
B5: in the experiment with human CD33 [1], the “Fold affinity improvement” value was 12.1 fold and the Kd came out at 0.225 nM. Also, in experiment [2], the “Maximal Downregulation (% CD33 remaining)” value was determined as 25.5% and the “Receptor downregulation (EC50)” value amounted to 0.0448 nM. In the experiment with human CD33 [7], this molecule returned a koff of 0.00023 s⁻¹ and a kon of 1.02e+06 M⁻¹ s⁻¹.

B6: AB-63.14 (antibody, V domains shown)
VH: B1 VH with A16S, E29F
VL: B1 VL with N22D, R24K, L98I
Regarding B6, in the experiment with human CD33 [1], the “Fold affinity improvement” value worked out at 11.2 fold and binding was characterised by a dissociation constant (Kd) of 0.244 nM. For the same molecule, in experiment [2], the “Maximal Downregulation (% CD33 remaining)” value stood at 25.3% and the “Receptor downregulation (EC50)” value was 0.0519 nM. In addition, in the experiment with human CD33 [8], the koff is 0.0002 s⁻¹ and the kon was determined as 819000 M⁻¹ s⁻¹.
